Patent US7517661B2, “Methods of screening for ligands for FPRL2” (Takeda Pharmaceutical Company Limited, priority 2003, dated 2009)
Numbering of substitutions follows the chain as printed. Where no end group is shown, it is not given here.

Key:
[1] = biological target: T1, human FPRL2 (Homo sapiens, UniProt P25089, D338H/G94A/S211T); assay: Intracellular cAMP production inhibition assay (AlphaScreen) in human FPRL2-expressing CHO cells; type: cell-based; conditions: summary statement in disclosure of invention
T1 construct: expressed in transfected cells; host or cells: CHO cells
T1 sequence (P25089 1-353 G94A/S211T/D338H): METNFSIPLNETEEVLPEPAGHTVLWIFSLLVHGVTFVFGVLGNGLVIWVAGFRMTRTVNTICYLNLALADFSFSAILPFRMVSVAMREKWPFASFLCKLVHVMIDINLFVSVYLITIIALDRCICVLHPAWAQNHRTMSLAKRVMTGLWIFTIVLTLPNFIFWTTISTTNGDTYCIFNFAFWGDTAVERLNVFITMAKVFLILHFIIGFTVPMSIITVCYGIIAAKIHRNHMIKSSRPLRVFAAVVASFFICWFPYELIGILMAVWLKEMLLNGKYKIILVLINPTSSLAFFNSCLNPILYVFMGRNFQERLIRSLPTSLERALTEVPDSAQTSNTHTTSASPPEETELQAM
Experimental: (§1) Orphan G protein-coupled receptor protein-expressing CHO cells were inoculated in one flask of 150 cm^2 at 1×10^7 cells, followed by incubation at 37° C. in a CO2 incubator. Subsequently to the incubation, the cells were detached using 0.5 mM EDTA/PBS, and washed with PBS. The cells were then suspended at a density of 1×10^7 cells/ml in Buffer 1 (HBSS+0.1% BSA, 25 mM HEPES, pH 7.3, 0.5 mM IBMX). This cell suspension, 440 μl, was mixed with 22 μl of anti-cAMP acceptor beads of AlphaScreen cAMP Assay Kit (Perkin Elmer) and 638 μl of Buffer 1. The resulting mixture was dispensed on a white 96-well plate (Costar) by 10 μl each. Next, 10 μl each of a Buffer 1 dilution or solution of the compound to be screened was added to each well. In this case, the cell suspension was not given in one row of the plate but only a mixture of 9 μl of anti-cAMP acceptor beads and 441 μl of Buffer 1 was charged and instead of the compound, a serial dilution of cAMP was added thereto. This was made standard. The plate in which a mixture of the cell suspension and the compound was charged was kept shaken at room temperature for 30 minutes. Thirty minutes after, a mixture of 20 μl of Biotinyl camp and 82 μl of Streptavin donor beads of AlphaScreen cAMP Assay kit with 40 ml of Buffer 2 (HBSS+0.1% BSA, 25 mM HEPES, pH 7.3, 1.5% Tween 20) was added to all wells of the plate by 30 μl each. The plate was kept shaken at room temperature for 3 hours and the fluorescence intensity was measured by Fusion a (Perkin Elmer). Using the cAMP standard charged in the plate, the cAMP level in each well was calculated. In addition to human FPRL2-expressing CHO cells, three orphan G protein-coupled receptor protein-expressed CHO cells were added and the resulting compound library was provided for screening using the assay system described above.

[2] = biological target: T2, human FPRL2 (Homo sapiens, UniProt P25089); assay: as above; type: cell-based; conditions: human FPRL2-expressing CHO cells; reactivity also examined for human FPRL1, human FPR1 and mock CHO (FIGS. 1-4)
T2 construct: expressed in transfected cells; host or cells: CHO cells
T2 sequence (P25089 1-353 G94A/S211T/D338H): T1 sequence (P25089 1-353 G94A/S211T/D338H)
Experimental: as §1

[3] = biological target: T3, FPRL2 (Homo sapiens, UniProt P25089); conditions: J Biol. Chem., Jun. 15, 2001; 276 (24): 21585-93; cited from earlier work
T3 sequence (P25089 1-353): T1 sequence (P25089 1-353 G94A/S211T/D338H) with A94G, T211S, H338D

Substance | ligand activity on FPRL2 [1] | intracellular cAMP production inhibition activity [2] | agonist for FPRL2 (reported) [3]
Ala-Arg-Pro-Gly-Tyr-Leu-Ala-Phe-Pro-Arg-Met-NH2 (ARPGYLAFPRM-NH2; listed as Aplysia sp.) [SCPA] | exhibit a ligand activity on FPRL2 | exhibited the intracellular cAMP production inhibition activity specific to human FPRL2 | 
Gly-Asn-His-Trp-Ala-Val-Gly-His-Leu-Met-NH2 (GNHWAVGHLM-NH2; listed as Homo sapiens) [hNeuromedin C] | exhibit a ligand activity on FPRL2 | exhibited the intracellular cAMP production inhibition activity specific to human FPRL2 | 
His-Trp-Ala-Trp-Phe-Lys-NH2 (HWAWFK-NH2; not fully specified (residues 2, 5); printed as His-Trp-Ala-Trp-Phe-Lys-NH2) [GHRP-6] | exhibit a ligand activity on FPRL2 | exhibited the intracellular cAMP production inhibition activity specific to human FPRL2 | 
Met-Pro-His-Ser-Phe-Ala-Asn-Leu-Pro-Leu-Arg-Phe-NH2 (MPHSFANLPLRF-NH2; listed as Sus scrofa) [hRFRP-1-12] | exhibit a ligand activity on FPRL2 | exhibited the intracellular cAMP production inhibition activity specific to human FPRL2 | 
Trp-Lys-Tyr-Met-Val-Met-NH2 |  |  | agonist for FPRL2
